Measured values: patent US20030044418A1 (TEXAS A AND M UNIVERSITY SYSTEM UNIVERSITY, published 2003)
No end group written: not given here.

What was measured:
[1] = target: T1, rSdrG(50-597) (Staphylococcus epidermidis K28, UniProt Q9KI13 50-597); test: Western ligand blot, biotin labeled rSdrG(50-597)
T1 construct: Used biotin labeled in the Western ligand blots and in the ELISAs on protease-treated Fg; also called recombinant SdrG A-region; recombinant form of the N-terminal A-region of SdrG
T1 sequence: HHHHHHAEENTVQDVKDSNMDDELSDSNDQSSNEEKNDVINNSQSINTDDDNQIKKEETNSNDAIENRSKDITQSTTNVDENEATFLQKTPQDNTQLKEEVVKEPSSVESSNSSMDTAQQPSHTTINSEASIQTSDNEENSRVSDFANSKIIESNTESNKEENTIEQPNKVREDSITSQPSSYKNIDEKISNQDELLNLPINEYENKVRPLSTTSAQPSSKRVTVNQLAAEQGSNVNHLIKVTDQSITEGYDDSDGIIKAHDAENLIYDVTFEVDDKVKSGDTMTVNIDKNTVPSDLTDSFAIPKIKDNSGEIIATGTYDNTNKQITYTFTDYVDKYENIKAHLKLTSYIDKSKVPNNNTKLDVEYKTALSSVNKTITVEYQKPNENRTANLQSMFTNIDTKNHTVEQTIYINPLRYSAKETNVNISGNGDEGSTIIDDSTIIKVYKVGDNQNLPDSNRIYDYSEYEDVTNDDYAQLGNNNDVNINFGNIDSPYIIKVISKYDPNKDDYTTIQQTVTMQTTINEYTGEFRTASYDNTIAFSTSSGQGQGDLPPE

[2] = target: T1, rSdrG(50-597); test: inhibition ELISA, peptide varied, 50 nM rSdrG(50-597), Fg-coated wells
[3] = target: T1, rSdrG(50-597); test: Western ligand blot of E. coli lysates, biotin labeled rSdrG(50-597) 0.5 µM
[4] = target: T1, rSdrG(50-597); test: fluorescence polarization, increasing rSdrG(50-597) with 10 nM fluorescein-labeled β1-25, three experiments
[5] = target: T1, rSdrG(50-597); test: Western ligand blot
[6] = target: T1, rSdrG(50-597); test: inhibition ELISA, peptide varied, 50 nM rSdrG(50-597), Fg-coated wells; reference β1-25

B1: rβ(25-195) (ligand)
chain: EAPSLRPAPPPISGGGYRARPAKAAATQKKVERKAPDAGGCLHADPDLGVLCPTGCQLQEALLQQERPIRNSVDELNNNVEAVSQTSSSSFQYMYLLKDLWQKRQKQVKDNENVVNEYSSELEKHQLYIDETVNSNIPTNLRVLRSILENLRSKIQKLESDVSAQMEYCRT
notes: range 25-195; Expressed in E. coli; whole cell lysate on the blot; The text says it lacks the N-terminal 25 residues although the name begins at 25; not shown: N-terminal His-tag or GST fusion
binding result [1]: no binding (tested: 0.5 µM)

NEEGFFSARGHRPLDKKREE (Synthetic peptide (Research Genetics)) [peptide β6-25]
binding result [2]: binds

B2: rβ(1-341) (ligand)
chain: QGVNDNEEGFFSARGHRPLDKKREEAPSLRPAPPPISGGGYRARPAKAAATQKKVERKAPDAGGCLHADPDLGVLCPTGCQLQEALLQQERPIRNSVDELNNNVEAVSQTSSSSFQYMYLLKDLWQKRQKQVKDNENVVNEYSSELEKHQLYIDETVNSNIPTNLRVLRSILENLRSKIQKLESDVSAQMEYCRTPCTVSCNIPVVSGKECEEIIRKGGETSEMYLIQPDSSVKPYRVYCDMNTENGGWTVIQNRQDGSVDFGRKWDPYKQGFGNVATNTDGKNYCGLPGEYWLGNDKISQLTRMGPTELLIEMEDWKGDKVKAHYGGFTVQNEANKYQIS
notes: range 1-341; Expressed in E. coli; whole cell lysate on the blot; also called recombinant truncate encompassing residues 1-341; not shown: N-terminal His-tag or GST fusion
binding result [3]: binds

QGVNDNEEGFFSARGHRPLD (ends and bridges not checked, Synthetic peptide (Research Genetics)) [peptide β1-20]
binding result [2]: binds

B3: rβ(1-220) (ligand)
chain: QGVNDNEEGFFSARGHRPLDKKREEAPSLRPAPPPISGGGYRARPAKAAATQKKVERKAPDAGGCLHADPDLGVLCPTGCQLQEALLQQERPIRNSVDELNNNVEAVSQTSSSSFQYMYLLKDLWQKRQKQVKDNENVVNEYSSELEKHQLYIDETVNSNIPTNLRVLRSILENLRSKIQKLESDVSAQMEYCRTPCTVSCNIPVVSGKECEEIIRKGGE
notes: range 1-220; Expressed in E. coli; whole cell lysate on the blot; also called recombinant truncate encompassing residues 1-220; not shown: N-terminal His-tag or GST fusion
binding result [3]: binds

B4: rβ(1-195) (ligand)
chain: QGVNDNEEGFFSARGHRPLDKKREEAPSLRPAPPPISGGGYRARPAKAAATQKKVERKAPDAGGCLHADPDLGVLCPTGCQLQEALLQQERPIRNSVDELNNNVEAVSQTSSSSFQYMYLLKDLWQKRQKQVKDNENVVNEYSSELEKHQLYIDETVNSNIPTNLRVLRSILENLRSKIQKLESDVSAQMEYCRT
notes: range 1-195; Expressed in E. coli; whole cell lysate on the blot; also called recombinant truncate encompassing residues 1-195; not shown: N-terminal His-tag or GST fusion
binding result [3]: binds

B5: fluorescein-labeled β1-25 peptide (peptide)
peptide: QGVNDNEEGFFSARGHRPLDKKREE
modifications: ends and bridges not checked; also: fluorescein label, position not given here
notes: used at 10 nM in fluorescence polarization; also called fluorescein-labeled N-terminal Bβ chain peptide β1-25; labeled peptide
Kd [4]: 140 nM

B6: γ chain of Fg (ligand)
chain: YVATRDNCCILDERFGSYCPTTCGIADFLSTYQTKVDKDLQSLEDILHQVENKTSEVKQLIKAIQLTYNPDESSKPNMIDAATLKSRKMLEEIMKYEASILTHDSSIRYLQEIYNSNNQKIVNLKEKVAQLEAQCQEPCKDTVQIHDITGKDCQDIANKGAKQSGLYFIKPLKANQQFLVYCEIDGSGNGWTVFQKRLDGSVDFKKNWIQYKEGFGHLSPTGTTEFWLGNEKIHLISTQSAIPYALRVELEDWNGRTSTADYAMFKVGPEADKYRLTYAYFAGGDAGDAFDGFDFGDDPSDKFFTSHNGMQFSTWDNDNDKFEGNCAEQDGSGWWMNKCHAGHLNGVYYQGGTYSKASTPNGYDNGIIWATWKTRWYSMKKTTMKIIPFNRLTIGEGQQHHLGGAKQAGDV
notes: Chain of native Fg on a Western ligand blot
binding result [1]: no binding

B7: native Bβ chain of fibrinogen (ligand)
chain: QGVNDNEEGFFSARGHRPLDKKREEAPSLRPAPPPISGGGYRARPAKAAATQKKVERKAPDAGGCLHADPDLGVLCPTGCQLQEALLQQERPIRNSVDELNNNVEAVSQTSSSSFQYMYLLKDLWQKRQKQVKDNENVVNEYSSELEKHQLYIDETVNSNIPTNLRVLRSILENLRSKIQKLESDVSAQMEYCRTPCTVSCNIPVVSGKECEEIIRKGGETSEMYLIQPDSSVKPYRVYCDMNTENGGWTVIQNRQDGSVDFGRKWDPYKQGFGNVATNTDGKNYCGLPGEYWLGNDKISQLTRMGPTELLIEMEDWKGDKVKAHYGGFTVQNEANKYQISVNKYRGTAGNALMDGASQLMGENRTMTIHNGMFFSTYDRDNDGWLTSDPRKQCSKEDGGGWWYNRCHAANPNGRYYWGGQYTWDMAKHGTDDGVVWMNWKGSWYSMRKMSMKIRPFFPQQ
notes: Chain of native Fg on a Western ligand blot; also called Fg Bβ chain
binding result [5]: binds

B8: peptide β1-25 (peptide)
peptide: QGVNDNEEGFFSARGHRPLDKKREE
modifications: ends and bridges not checked
notes: Synthetic peptide (Research Genetics); also called unlabeled β1-25; synthetic 25 amino acid peptide representing the N-terminus of the Fg Bβ chain
binding result [2]: binds

B9: rβ(1-95) (ligand)
chain: QGVNDNEEGFFSARGHRPLDKKREEAPSLRPAPPPISGGGYRARPAKAAATQKKVERKAPDAGGCLHADPDLGVLCPTGCQLQEALLQQERPIRN
notes: range 1-95; Expressed in E. coli; whole cell lysate on the blot; also called recombinant truncate encompassing residues 1-95; not shown: N-terminal His-tag or GST fusion
binding result [3]: binds

B10: rβ(25-95) (ligand)
chain: EAPSLRPAPPPISGGGYRARPAKAAATQKKVERKAPDAGGCLHADPDLGVLCPTGCQLQEALLQQERPIRN
notes: range 25-95; Expressed in E. coli; whole cell lysate on the blot; The text says it lacks the N-terminal 25 residues although the name begins at 25; not shown: N-terminal His-tag or GST fusion
binding result [1]: no binding (tested: 0.5 µM)

B11: peptide β6-20 (peptide)
peptide: NEEGFFSARGHRPLD
notes: Synthetic peptide made in the inventors' laboratory
binding result [2]: binds

B12: fibrinopeptide B (peptide)
peptide: QGVNDNEEGFFSAR
notes: Bought from Bachem; also called FpB; FpB (1-14)
fold less active than the synthetic peptide β1-25 as inhibitor [6]: 10 fold
